# B1: OATP4C1 (Homo sapiens) (protein)
# chain: MKSAKGIENLAFVPSSPDILRRLSASPSQIEVSALSSDPQRENSQPQELQKPQEPQKSPEPSLPSAPPNVSEEKLRSLSLSEFEEGSYGWRNFHPQCLQRCNTPGGFLLHYCLLAVTQGIVVNGLVNISISTVEKRYEMKSSLTGLISSSYDISFCLLSLFVSFFGERGHKPRWLAFAAFMIGLGALVFSLPQFFSGEYKLGSLFEDTCVTTRNSTSCTSSTSSLSNYLYVFILGQLLLGAGGTPLYTLGTAFLDDSVPTHKSSLYIGTGYAMSILGPAIGYVLGGQLLTIYIDVAMGESTDVTEDDPRWLGAWWIGFLLSWIFAWSLIIPFSCFPKHLPGTAEIQAGKTSQAHQSNSNADVKFGKSIKDFPAALKNLMKNAVFMCLVLSTSSEALITTGFATFLPKFIENQFGLTSSFAATLGGAVLIPGAALGQILGGFLVSKFRMTCKNTMKFALFTSGVALTLSFVFMYAKCENEPFAGVSESYNGTGELGNLIAPCNANCNCSRSYYYPVCGDGVQYFSPCFAGCSNPVAHRKPKVYYNCSCIERKTEITSTAETFGFEAKAGKCETHCAKLPIFLCIFFIVIIFTFMAGTPITVSILRCVNHRQRSLALGIQFMVLRLLGTIPGPIIFGFTIDSTCILWDINDCGIKGACWIYDNIKMAHMLVAISVTCKVITMFFNGFAIFLYKPPPSATDVSFHKENAVVTNVLAEQDLNKIVKEG
# notes: HEK293 cells stably expressing human OATP4C1
# Substrate: CN=C(NC)NCCC[C@H](N)C(=O)O
# Test: [3H]SDMA uptake kinetics (Km) and efflux in HEK-OATP4C1 cells
# Assay type: cell-based, Homo sapiens
protein,measurement,value
B1,Km,70 µM
